Consider one molecule from patent US20080274112A1, “Nogo Receptor Antagonists” (priority 2003, published 2008).

One experiment addresses T1, rat NgR1 (Rattus norvegicus, UniProt Q99M75).
T1 sequence (Q99M75 27-447): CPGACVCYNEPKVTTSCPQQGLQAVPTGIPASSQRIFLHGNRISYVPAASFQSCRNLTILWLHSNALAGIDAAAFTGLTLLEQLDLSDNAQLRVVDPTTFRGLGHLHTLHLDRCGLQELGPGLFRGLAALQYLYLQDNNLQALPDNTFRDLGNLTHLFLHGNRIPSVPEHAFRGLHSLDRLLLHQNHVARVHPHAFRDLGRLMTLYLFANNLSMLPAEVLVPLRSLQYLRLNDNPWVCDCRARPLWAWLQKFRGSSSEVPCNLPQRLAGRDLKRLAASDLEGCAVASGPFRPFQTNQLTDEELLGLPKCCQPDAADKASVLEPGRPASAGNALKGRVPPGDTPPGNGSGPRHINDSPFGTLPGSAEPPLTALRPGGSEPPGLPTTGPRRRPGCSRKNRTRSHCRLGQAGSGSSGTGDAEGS
The experiment can be described thus: Antibody binding to rat Nogo receptor-1.

For a further experiment, the system named is DRG neurons. Kind of experiment: Neurite outgrowth assay on CNS myelin (Example 5). The class given is cell-based. The note with it: P3-4 rat DRG; 15 μg/ml mAb 7E11. The procedure:
To test the ability of the monoclonal and Fab-phage antibodies produced above to lessen the inhibitory effect of CNS myelin on neurons, Lab-Tek® culture slides (4 wells) were coated with 0.1 mg/ml poly-D-lysine (Sigma®). CNS myelin or PBS was spotted as 3 μl drops. Fluorescent microspheres (Polysciences) were added to the myelin/PBS to allow later identification of the drops (Grandpre et al, Nature 403, 2000). Lab-Tek® slides were then rinsed and coated with 10 μg/ml laminin (Gibco™). Dorsal root ganglions (DRG's) from P3-4 Sprague Dawley rat pups were dissociated with 1 mg/ml collagenase type 1 (Worthington), triturated with fire-polished Pasteur pipettes pre-plated to enrich in neuronal cells and finally plated at 23,000 cells/well on the pre-coated Lab-Tek® culture slides. The culture medium was F12 containing 5% heat inactivated donor horse serum, 5% heat inactivated fetal bovine serum and 50 ng/ml MNGF and incubated at 37 °C and 5% CO2 for 6 hours. Fifteen μg/ml of mAb 7E11 was added immediately after plating.
Slides were fixed for 20 minutes with 4% paraformaldehyde containing 20% sucrose and stained for the neuronal marker anti beta-III-tubulin (Covance TUJ1) diluted 1:500. […] 5× digital images were acquired with OpenLab™ software and analysed by using the MetaMorph® software for quantification of neurite outgrowth.

The target in experiment [1] is T2, sNogoR344-Fc (residues 26-344 of rat Nogo receptor-1) (Rattus norvegicus, UniProt Q99M75, A303T/C287S/C43R/E284G/T53A).
T2 construct: amino acid residues 26-344 of rat Nogo receptor-1; made in house
T2 sequence (Q99M75 26-344 C43R/T53A/E284G/C287S/A303T): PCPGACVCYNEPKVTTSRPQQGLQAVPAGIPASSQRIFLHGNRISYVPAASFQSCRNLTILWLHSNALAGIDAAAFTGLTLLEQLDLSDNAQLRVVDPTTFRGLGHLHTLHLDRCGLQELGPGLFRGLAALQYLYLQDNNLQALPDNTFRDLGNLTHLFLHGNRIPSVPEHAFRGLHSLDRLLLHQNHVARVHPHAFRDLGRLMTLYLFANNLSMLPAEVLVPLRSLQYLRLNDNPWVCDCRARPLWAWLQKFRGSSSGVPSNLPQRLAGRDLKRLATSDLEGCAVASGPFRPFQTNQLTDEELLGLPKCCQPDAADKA
Kind of experiment: Inhibition of 125I-Nogo66 binding to sNogoR344-Fc on SPA beads. As to conditions: curve-fit. How it is done: 0.5 μg of a soluble Nogo receptor-1 fusion protein comprising amino acid residues 26-344 of rat Nogo receptor-1 and the hinge and Fc region of the rat IgG1 molecule (sNogoR344-Fc) produced as described below was immobilized on 250 μg of protein-A- or wheatgerm agglutinin-conjugated SPA beads (Amersham Pharmacia Biotech) for 2 hours at 25° C. SPA beads coupled with Fc-sNogoR-1, anti-Nogo receptor-1 mAb and 1 μl ^125I-Nogo66 (Amersham, 2000 Ci/mmol, 1 nM) in 50 μl of the HEPES-buffered incubation medium (10 mM HEPES, pH 7.4, 0.1% bovine serum albumin, 0.1% ovalbumin, 2 mM MgCl2, 2 mM CaCl2 and protease inhibitors) was added to each sample well. After 16 hours, radioactivity was measured in quadruplicate samples using a TopCount® (Packard). IC50 values were calculated from a curve-fit analysis (FIG. 3) (PRISM, GraphPad Software, NJ). In some experiments, we also used AP-ligand conjugates (e.g. AP-Nogo66) and detected binding by monitoring alkaline phosphatase activity. We also assayed the ability of the mAbs to block binding of the ligands MAG-Fc and AP-OM-gp to Nogo receptor-1.

The target of a further experiment is T3, human Nogo receptor-1 (Homo sapiens, UniProt Q9BZR6).
T3 construct: expressed in transfected cells; host or cells: COS-7 or 293 cells
T3 sequence (Q9BZR6 27-447): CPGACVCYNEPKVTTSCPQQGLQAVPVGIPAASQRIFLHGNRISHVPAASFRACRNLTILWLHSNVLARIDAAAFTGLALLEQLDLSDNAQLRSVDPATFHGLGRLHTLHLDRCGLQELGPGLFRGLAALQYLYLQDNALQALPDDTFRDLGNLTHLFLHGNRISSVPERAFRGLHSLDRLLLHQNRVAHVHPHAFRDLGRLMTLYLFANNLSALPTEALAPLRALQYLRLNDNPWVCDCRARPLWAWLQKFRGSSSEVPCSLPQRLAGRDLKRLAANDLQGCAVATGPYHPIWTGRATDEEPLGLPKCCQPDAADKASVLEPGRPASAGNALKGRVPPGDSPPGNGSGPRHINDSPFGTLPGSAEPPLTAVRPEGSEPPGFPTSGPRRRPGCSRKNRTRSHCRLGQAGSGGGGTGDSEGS
Kind of experiment: Immunohistochemical staining of fixed and live cells expressing human Nogo receptor-1. The class given is cell-based. The procedure:
To further characterize the binding properties of anti-Nogo receptor-1 mAbs produced as described in Example 1, we compared binding to both fixed and live COS-7 or 293 cells expressing rat or human Nogo receptor-1.
Nogo receptor-1 transfected and non-transfected cells were plated in 8-well Lab-Tek® culture slides, fixed with 4% paraformaldehyde for 15 minutes, blocked with 10% normal goat serum, 0.1% Triton X-100 in PBS for 1 hour. Mab 7E11 was added at 15 μg/ml and 1.5 μg/ml in blocking solution and incubated for 2 hours at room temperature; Alexa®-conjugated secondary antibody anti-mouse (Molecular Probes) was incubated at a 1:300 dilution in blocking solution for 1 hour; DAPI was added at 5 μg/ml to the secondary antibody to label all nuclei.
Transfected and non-transfected cells were plated in 8 well Lab-Tek® culture slides, blocked with FACS buffer (containing 4% donor horse serum) for 30 minutes at 4° C., incubated with 7E11 at 15 μg/ml and 1.5 μg/ml in FACS buffer for 1 hour at 4° C., rinsed and incubated with secondary antibody anti-mouse-Alexa® (1:300 in FACS buffer) for 30 minutes at 4° C.

Entries after “also recorded” stand apart in the source; their conditions may differ.

B1: 7E11: murine monoclonal anti-Nogo receptor-1 antibody, IgG1 kappa, ATCC PTA-4587; immunogen rat Nogo receptor-1 residues 110-125 (antibody, V domains shown)
VH: VQLQESGAELVMPGASVKMSCKASGYTFTDYWMHWVKQRPGQGLEWIGAIDPSDSYSSYNQNFKGKATLTVDGSSSTAYMQLSSLTSEDSAVYYCARRITEAGAWFAYWGQGTTVT
VL: DVVMTQTPLSLPVSLGDQASISCRSSQSLVHSNGNTYLHWYLQKPGQSPKLLIYKVSNRFSGVPDRFSGSGSGTDFTLKISRVDAEDLGVYFCSQSTHVPFTFGGGTKLEIKRADAAPTVSISHH
Turning to B1, the “binding to rat NgR1” value with rat NgR1 is reported as “bound; also recorded: binds well”. Further, the “protection from myelin-mediated inhibition of neurite outgrowth” value in the experiment on DRG neurons was “protected”. The molecule further registered an IC50 in experiment [1] of 0.4 µM. For the same molecule, the “binding to cells expressing human Nogo receptor-1” value with human Nogo receptor-1 is “bound both fixed and live cells”.
